Here are results for 15 sequences from a protein production outcome set (Wang et al. 2014).

This data set can be described thus: label from the status in PepcDB records.

For “MESMQDLWTLKYRAETLEGMLGNEHAVRTLSELLQSGTLPHLIFYGPENSGKTTASLALARELYGETWKNNFVYFNASDFFDQGKRYLVRDKRFVRILGTDDPKKIYKSVIDIFKEVVNEYAGMASIDADYKIIYIDNAESLSSDAQHALRRIMEKYSSTCRFILSTTRPSKLISPLRSRGLQVFFAYVPDSLLKTHLERIALAEKLKLSDGALDAVLYLAKGNVARAVQTLQLAALRSEGAEITEEIVYEATMKGRDETIDELLEAALAGDFARGRQLIDGMIIEKGLSGTDIFEGLSEALIDSGETDADIARLIVSISEADARLTDATSERIQLEKLISTFS”, the protein production result was “failed”. In the case of “MESSGNPESTTFFYYDLQSQPCENQAWVFATLATTVLYCLVFLLSLVGNSLVLWVLVKYESLESLTNIFILNLCLSDLVFACLLPVWISPYHWGWVLGDFLCKLLNMIFSISLYSSIFFLTIMTIHRYLSVVSPLSTLRVPTLRCRVLVTMAVWVASILSSILDTIFHKVLSSGCDYSELTWYLTSVYQHNLFFLLSLGIILFCYVEILRTLFRSRSKRRHCTVKLIFAIVVAYFLSWGPYNFTLFLQTLFRTQIIRSCEAKQQLEYALLICRNLAFSHCCFNPVLYVFVGVKFRTHLKHVLRQFWFCRLQAPSPASIPHSPGAFAYEGASFY” it was “failed”; in that of “MESTKQEEQGIYAATPPATGLLERLFKLRQHGTTVRTELAAGLTTFITMAYIIFVNPNIMADAGIDHGAAFVATCLAAALGCFLMGLYANWPVGLAPGMGLNAFFTYTVVGTMGYSWQIALGAVFISGVMFMLLTFSRVREWLLNSIPRSLRFAMGAGVGLFLGLIGLKTAGIVVASPATLIKLGHLTSPGPLLAALCFLMIAVLEYRRVFGGILISILSVTLVGWALGLVQYGGVFSAPPSLAPTFLAMDIAGAFNVTMISVILAFLFVHMFDTAGTLMGVAQRAHLVKEDGRIENLSKAMKADSASSVFGGMLGVPPVTSYVESAAGVAAGGRTGLTAVVVGVLFVAAMFFAPLAGMIPAFATAGALIYVAMLMMGGMAHIDWDEHTETIPAIVTVIMMPLTFSVADGIALGFITYVAMKVLTGKHREVSASLYALFVIFVAKFIFL”, “failed”; in that of “MESYDIEGSNQNYVYINVNRWTSTEYPQNTFVYEVLRTPIGSSLESGPEIVKVGVRSTKVASKDITVTLDIDNCASIGEFSSFPDGVKVTLDKKELVIPAGSMLSSDSVTIEIEDGKWSEFVNTSYLLPLKVTSVSNAALSETHSSAYLAVSTSFTNCVPGATSVEGTLISDRSAWTATNNGVDVGTTLFDGNTRTYPSQDASSTVIVNLNGVYQNITGIRLQYYSRNYSLSSAAVYTSETGGEDYEYQGNVTFSRATPQYIRFYGAVSARYVKLELLPYSSGYGIVLSEFDMYQNELEHHHHHH”, “not failed”. The same measure for “METKILSNATHKCVLVIDNAQPTGIVANIASVLSMTLGCRVSNIVSHDVYDKQGERHLGITQLPIPILGASQEKIKELRNYFHSLEIEDLVLVDFSTIAQQSRTYDEYEREMYSANEDDLHYVGIGICAEKKAINKATGSLSLIRLEHHHHHH”: “failed”. “METLILTQEEVESLISMDEAMNAVEEAFRLYALGKAQMPPKVYLEFEKGDLRAMPAHLMGYAGLKWVNSHPGNPDKGLPTVMALMILNSPETGFPLAVMDATYTTSLRTGAAGGIAAKYLARKNSSVFGFIGCGTQAYFQLEALRRVFDIGEVKAYDVREKAAKKFVSYCEDRGISASVQPAEEASRCDVLVTTTPSRKPVVKAEWVEEGTHINAIGADGPGKQELDVEILKKAKIVVDDLEQAKHGGEINVAVSKGVIGVEDVHATIGEVIAGLKDGRESDEEITIFDSTGLAIQDVAVAKVVYENALSKNVGSKIKFFRI”: the protein production result is reported as “not failed”. In the case of “METLSVGHKIKTLRQSLGLSQRDLAEGICTQALISHIEKNKTTPTVDVFFNIAKKLGAPADYFLETHDNSLDYILEVQYQIRKQVQEHNYEEALNIIKTERKNPIFNNSKYLQFLLWHEAICEYSLNKRYNEAVEAIEEALKLTHKEGNSYSEREIEILISLANFHDSEKKYDLSTKIYQDINDSLKALSYLSDRKIQLRFLFNYSLNRNNVKRYKEAIDLCNKGIILCKQHGFLYSFGEFHYQKGQNLIDLGRKKEALKFLEKAKMIFDIQDNELFANIADKEIKKLQKSLEMTVS” it was “failed”; in that of “METRARYVLIGIFTLASILATLGFLLWLAKVQLDRTYAEYDILFTSVEGLGRASPVRYNGVDVGEVLNIAVDAEDPSLVRVRIQLAATTPVRTDTKAQVASQGVTGVSYVSLSGGAAPEPLTAEGDQWPPVIPSERSAVQALTADAPTLLAEAIALLKDIQTFTGPENRAAVESILTNADASVQNIAAITRDAAEATSRLNDFTARLDAMADRADVALASLETALEEGKGAAASARDTFEAVNRVVDRDVPPMIAQIRSAVSGIERSVAGIRNFADNGLPQYATLAAETRRTVTNLNSLIAQISRDPARFFLGSQTPSYRR”, “failed”; in that of “METSKKLVIVAVLSITLILTYAYLISIIEGVDYFTALYFSVITITTTGYGDFTPKTFLGRTLTVVYLCVGVGIVMYLFSLIAEFIVEGKFEEFVRLKKMKNKIKTLKDHYIICGYGRLGKVVGEKFIEENIPFIAIDINEDVLKEEYEKYPDKFLYIVGDAKKEEVLKKAKIDKAKGLIATLPSDADNVFLTLTARELNPNILITAKADEKEAIRKLKIAGANRVVSPYLIGGLRMAEVSVRPGILDFLSTFIKIAKDEYEEDIELRKFVIEKDSELAYKSLKDANIRGKTGATILGIRREKEFCINPYPEFILKPGDVIYAFGTEENLKYLENLVKKKKKKL”, “failed”. The same measure for “METVRPMVVAPKGNKLRRKFAKVLNIHKLTGVAPEGEMKKIKFDSKTAKLSESFYKLEEEYERSQGLEALLAKLFATVSSIKAAYAQLQHSQSPYDSIGIQKADNLVVAELKTLSELKQCFMKKQVDPNPERTLVLAEIQELRSLLKTYEIMGKKLESQYKLKDSEIIFLREKLDESMKQNKLTEKRLNQSGQLCNPLDNLHLSALNPTHFVTYLHHTVKSTRGFVKLMIEQMKLAGWDISSAANSIHPGVFYYKQDHKCFTFEHFVSNVMFEAFHLPYFSTSSESRSYKKKKQSNADREMFFERFKELRSMKAKDYLTARPKSRFARFCRAKYLQLIHPKMEQAFFGHLHLRNQVSAGEFPETSLFSGFLEMAKRIWLLHCLALSFEREAEIFRVPKGCRFSEVYMKSVAEEAFFPAAESSPESEPRVAFTVVPGFRIGKTSIQCEVYLSLS”: “failed”; for “MEVKQGLTLFARKQDMKSVWEITGSNIDLVCIGNFCRSLKDLSSRGGTDASTNTCMLPWQYSLQKPLLGVSYLNSDGSSQSTPHGSNGLVKRGATYIVSDDLTICVKKKFDVNLDDIFEHEINIGKTHSLIRDIHCLDYGFRELSFRETTLKHQSHALCGAD”: “failed”. In the case of “MEVSHVTLEPNKDSRPAVLTIGKFDGVHLGHQTILNTALSIKKENEILTAISFSPHPLWALKQIEIYREMLTPRMEKERWLAHYGVDHLIETAFTPRYAETTPEEFVTDHLSNLQLSHIIVGSEFNFGKGRDSDVDLLRDLCKPYGIGVTSVPVIETNQTKISSTNIRAFIRRGHFLEAEQLLGHP” it was “failed”.

For “MEWGISLQTKWSLSEYENPKRYDIENKSLSDFPFLLSWAQKLHIQNEWILDIACGTGRVTIPFIENGYQMIGVDIHEGMLAEAKKKTTDCKKVKWLQQDCLQLSMNEAIPFAFMVGHGFQHFLTNTDQNKLLTSIHHVLAENGIFIFDTRFPSKEELIQPSTEEYWTTISDEKGRECDLYTEMTYDLIQQIQHYITIRKFYDDDALVEELKTTIDLRYTYPQELERLLVANGFELLHIYNDWEGNELGEDCYSMVVVCRKK”, the protein production result is “failed”. The same measure for “MEYLFLRRKRTTATSERQKTLLFKAAERQWKEEFAGKETDIRKVDCNIYKGILYQLEIRQVFLDTSLSLKKLSALLETNQTYLSNVVNKYFGCNLKELVNTYRVEYAKELLCSRRCALTELPCSCGFASKSAFYSAFSRIVGVSPLSYQTQERRRHHLQAVNLEHHHHHH”: “failed”. In the case of “MEYLIYSLIAVIILTVGLNNIFKKQSKYFYMLATLISVVVTSYEIFKIWTGFKLEGIIFVLERSFMKGFVSTALFILVMFAGALSKKWGITKKLLRVRAEMAILASILILPHFIIYTYKFLVRLFSGKPLSILYISFIIVGLIAFIIMIPLFITSFKKVRVTMSPSKWKMVQRWAYPFYFLVYVHIILILFNKKVFNLNAVIIYTVIFLGYFILRICNNKKAIK” it was “failed”.
